# T1: human guanylate-binding protein 1 (hGBP1), full-length (human, UniProt P32455 1-592, NT-647-NHS label (in the MST assay only))
# T1 construct: full-length in the crystallized complex; in MST it was fluorescently labelled (NT-647-NHS) and no nucleotide is mentioned
# T1 sequence (looked up): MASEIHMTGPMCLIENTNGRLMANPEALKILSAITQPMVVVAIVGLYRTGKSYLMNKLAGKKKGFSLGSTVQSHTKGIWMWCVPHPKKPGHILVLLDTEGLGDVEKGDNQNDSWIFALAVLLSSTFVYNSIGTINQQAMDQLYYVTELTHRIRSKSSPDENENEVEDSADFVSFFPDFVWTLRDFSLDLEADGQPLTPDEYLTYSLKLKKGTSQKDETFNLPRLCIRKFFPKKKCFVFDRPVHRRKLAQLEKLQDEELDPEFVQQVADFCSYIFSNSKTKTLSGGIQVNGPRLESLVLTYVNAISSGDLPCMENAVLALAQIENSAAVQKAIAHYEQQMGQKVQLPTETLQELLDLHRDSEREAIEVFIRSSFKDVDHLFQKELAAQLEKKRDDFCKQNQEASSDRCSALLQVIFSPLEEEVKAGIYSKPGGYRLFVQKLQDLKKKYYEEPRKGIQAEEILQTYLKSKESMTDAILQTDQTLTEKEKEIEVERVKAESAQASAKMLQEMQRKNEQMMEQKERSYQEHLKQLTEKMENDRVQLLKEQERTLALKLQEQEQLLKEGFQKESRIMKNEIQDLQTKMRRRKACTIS
# Columns and labels:
# [1] = molecular target: T1, human guanylate-binding protein 1 …; test: crystal structure; 0.3 mM IpaH9.8^LRR (22–244) mixed with 0.3 mM full-length hGBP1 and 5 mM GDP; 3.5 M NaCl, 0.1 M sodium citrate pH 6.5, 20 °C; space group P6122, one heterodimer in the asymmetric unit; conditions: both partners purified
# [2] = molecular target: the molecule itself; test: native gel or EMSA; Native-PAGE of IpaH9.8 and IpaH9.8-C337A under reducing and non-reducing conditions
# [3] = molecular target: T1, human guanylate-binding protein 1 …; test: MST; 75 nM NT-647-NHS-labeled hGBP1 in PBS pH 7.4; IpaH9.8 titrated in, 30 min at room temperature; Monolith NT.Automated; conditions: both partners purified
Binder,binding result [1],binding result [2],binding result [3]
"IpaH9.8^LRR (22–244), LRR domain of IpaH9.8 (domain or fragment, Leucine-rich repeat domain of IpaH9.8 of S. flexneri, residues 22–244 as crystallized (the plasmid section says 21–244); Plasmids section gives 21–244, crystallization section 22–244; also called IpaH9.8 LRR domain; IpaH9.8^LRR-Sub) TYADYFSAWDKWEKQALPGEERDEAVSRLKECLINNSDELRLDRLNLSSLPDNLPAQITLLNVSYNQLTNLPELPVTLKKLYSASNKLSELPVLPPALESLQVQHNELENLPALPDSLLTMNISYNEIVSLPSLPQALKNLRATRNFLTELPAFSEGNNPVVREYFFDRNQISHIPESILNLRNECSIHISDNPLSSHALPALQRLTSSPDYHGPRIYFSMSD",binds,–,–
"IpaH9.8 (wild type, Shigella flexneri) (enzyme, IpaH9.8, bacterial E3 ubiquitin ligase of S. flexneri; the wild-type gene was synthesised and cloned as 'IpaH9.8' into pET28M; No tag cleavage is described although the vector has a TEV site; also called IpaH9.8-WT; wild-type IpaH9.8) MLPINNNFSLPQNSFYNTISGTYADYFSAWDKWEKQALPGEERDEAVSRLKECLINNSDELRLDRLNLSSLPDNLPAQITLLNVSYNQLTNLPELPVTLKKLYSASNKLSELPVLPPALESLQVQHNELENLPALPDSLLTMNISYNEIVSLPSLPQALKNLRATRNFLTELPAFSEGNNPVVREYFFDRNQISHIPESILNLRNECSIHISDNPLSSHALPALQRLTSSPDYHGPRIYFSMSDGQQNTLHRPLADAVTAWFPENKQSDVSQIWHAFEHEEHANTFSAFLDRLSDTVSARNTSGFREQVAAWLEKLSASAELRQQSFAVAADATESCEDRVALTWNNLRKTLLVHQASEGLFDNDTGALLSLGREMFRLEILEDIARDKVRTLHFVDEIEVYLAFQTMLAEKLQLSTAVKEMRFYGVSGVTANDLRTAEAMVRSREENEFTDWFSLWGPWHAVLKRTEADRWAQAEEQKYEMLENEYPQRVADRLKASGLSGDADAEREAGAQVMRETEQQIYRQLTDEVLALRLPENGSQLHHS",–,binds,binds
"IpaH9.8-C337A (enzyme, IpaH9.8 of S. flexneri with the active cysteine changed (C337A); mutants made by PCR-based mutagenesis; likely the same as m1) MLPINNNFSLPQNSFYNTISGTYADYFSAWDKWEKQALPGEERDEAVSRLKECLINNSDELRLDRLNLSSLPDNLPAQITLLNVSYNQLTNLPELPVTLKKLYSASNKLSELPVLPPALESLQVQHNELENLPALPDSLLTMNISYNEIVSLPSLPQALKNLRATRNFLTELPAFSEGNNPVVREYFFDRNQISHIPESILNLRNECSIHISDNPLSSHALPALQRLTSSPDYHGPRIYFSMSDGQQNTLHRPLADAVTAWFPENKQSDVSQIWHAFEHEEHANTFSAFLDRLSDTVSARNTSGFREQVAAWLEKLSASAELRQQSFAVAADATESAEDRVALTWNNLRKTLLVHQASEGLFDNDTGALLSLGREMFRLEILEDIARDKVRTLHFVDEIEVYLAFQTMLAEKLQLSTAVKEMRFYGVSGVTANDLRTAEAMVRSREENEFTDWFSLWGPWHAVLKRTEADRWAQAEEQKYEMLENEYPQRVADRLKASGLSGDADAEREAGAQVMRETEQQIYRQLTDEVLALRLPENGSQLHHS",–,binds,–
"IpaH9.8-R166A (enzyme, IpaH9.8 of S. flexneri with Arg166 changed to alanine; mutants made by PCR-based mutagenesis; likely the same as m1; also called IpaH9.8 mutant R166A) MLPINNNFSLPQNSFYNTISGTYADYFSAWDKWEKQALPGEERDEAVSRLKECLINNSDELRLDRLNLSSLPDNLPAQITLLNVSYNQLTNLPELPVTLKKLYSASNKLSELPVLPPALESLQVQHNELENLPALPDSLLTMNISYNEIVSLPSLPQALKNLRATANFLTELPAFSEGNNPVVREYFFDRNQISHIPESILNLRNECSIHISDNPLSSHALPALQRLTSSPDYHGPRIYFSMSDGQQNTLHRPLADAVTAWFPENKQSDVSQIWHAFEHEEHANTFSAFLDRLSDTVSARNTSGFREQVAAWLEKLSASAELRQQSFAVAADATESCEDRVALTWNNLRKTLLVHQASEGLFDNDTGALLSLGREMFRLEILEDIARDKVRTLHFVDEIEVYLAFQTMLAEKLQLSTAVKEMRFYGVSGVTANDLRTAEAMVRSREENEFTDWFSLWGPWHAVLKRTEADRWAQAEEQKYEMLENEYPQRVADRLKASGLSGDADAEREAGAQVMRETEQQIYRQLTDEVLALRLPENGSQLHHS",–,–,binds
